Data on 21 sequences can be found in the DeepSol protein solubility set.

The data set can be described thus: soluble on expression in E. coli; label from the status in PepcDB or PDB records.
Regarding “MKAMHVAQPAVVLASSRGIASFVCEYASPGKATEVRVTVLRQADSQVTEVCAATYMMGNELTFLDDSICTGTSSGNQVNLTIQGLRAMDTGLYICKVELMYPPPYYLGIGNGTQIYVIDPEPSPDSDLVPR”, the “soluble on expression in E. coli” value was “soluble”.

For the sequence “MKAQEVPSTTFTGGETVLTFKGGVHPPELKEWSKDKPIERAPLPQKVFVFLSNHAGNPAKPVVSPGDEVKTGQVIGEPEGFISAYLHSPVTGRVLEIKKILHPILGKPIEAIVIERTSDDEWVHIETGDFERMSKEEILEIIKKAGIVGLGGAMFPTHVKLSPPPEKKVDTLIVNGAECEPVLTIDHRLMLERAEDILQGILIMMKVLGVQKAVVGVESNKMDAYHNLKKVFKGYPVDVALLRTKYPQGAEKQLIYAITGRMVPRGGLPMDVGVVVQNVGTCVAVKEAVVDGKPLVERGMTVSGDAVKNQKNLIVRIGTPVKDVIDYCGGIDENTERVILGGPMMGISITNLDIPVMKGTSGITAFLPKKSRPQKPCIRCSECVQVCPMNLQPYLLYLLSTKRKYDEAVENGLMDCIECGSCTYTCPSKIEHVRYIKLAKTVYRATRRGRRAAALEHHHHHH”, the “soluble on expression in E. coli” value is “soluble”. The entry for “MKAVDQAPKKKSHERKRKEKRVHTGNGTAKKHHKRKSRSKSKNKPKNGLSCCRKKKKKSKKSKSKVTKKQPKKKVIKPLAPVPNEQLGEVVLVKNVKLPETPQKPENDTPVKDGLKPPRTTNSVEKINLSKESFNLSNEKIASDNGTEEKMEKKNVDSPADIQDGLKGKSKQKSEEKVHQKAKDDAKRGDECNKFKISDEKLTKWKLVAQETLKDDANIAVNEFEKVSGYLPPHISKNHFVSNMDKNRFVDVICMDHSRVKLTDSSYIHANWVDLNSSKKAILTQLPLSHTASDFWQMIIDQKIKCVLLIMTDGEFNKFGGNSVFPQNQDFLKFEDRFIRVGEFKQVELGKGWNLKVLSVSNGTYKTFIHVHHYKNWPHGSIPSDVKQIWQVQSYLRKYTDGHPPVYMSMSGCGRAGTFALFETAHMSLHNEQPSLNMVKCLENVRNGRLHSVQNLSQFSVVYTLIAEHVLGNGIGKKDVEEQENSIDNILRQLTIQ” is “not soluble”. The entry for “MKAVTFPVPWEYLKRIFEGKNVFVKPATLRVEEGMKVIFYASRENQGWHGEAEVERVEYYTSVEEIIKKYRDKLFLTPEELRRYERDRARWDSGRRKRPWMVLVLRNIEKYPRVVKPKKFIVVSGRYVDEKEYEEIRRSTSLEHHHHHH” is “soluble”; for “MKDGMRVGERFTHDFVVPPHKTVRHLYPESPEFAEFPEVFATGFMVGLMEWACVRAMAPYLEPGEGSLGTAICVTHTAATPPGLTVTVTAELRSVEGRRLSWRVSAHDGVDEIGSGTHERAVIHLEKFNAKVRQKTPAG” it is “soluble”. Consider “MKDIEKARRYLRNAGEMLRKNEVDEDGIYNNRKHVKIAGNRAYSGVLTALDAVLGNKTSDRKTLDWYEEELTNIDPKILPYFLTAYDVLYLAMGYDGNLIAAISKEGLDIAEKIINWAEQRTAA”, for which the “soluble on expression in E. coli” value is given as “not soluble”.

For “MKDTLKIGLLGLGTVGTGVLTLLKEHQEKISQVTGMNVVIEKAFVRNLETKQAQAEEYGLSLTTSIDDILEDKEIQIVVELMGTIEPAKTYIMKALEKGKHIVTANKDLLAQHGSELVALAQKHHCDLYYEASVAGGIPILRTIANSLAADNIQQVLGIVNGTTNYMLTQMVSADKSYEEALAEAQALGFAEADPTNDVDGIDAAYKMVILSQFAFGMNVSLPQVDIRGIRGLSLDDVAMAKQLGYEIKLIGSAEQNENSISVEVAPMLVNQKHPIASVRNEYNAVFIKSAGVGESMYYGPGAGAKPTATSVVSDLITIAKNIRLATTGHMFNSYQHKTQLTSSENVFGQYYFSLDVPDTPGQFLQLTQLMTKAEVSFDQLVQQKSDGQRARIVAITHQISKAQMQQVVIAIQNTEAFQLLNVMKVIGDE”, the “soluble on expression in E. coli” value was “not soluble”.

As to “MKEARKRMVKRAVQEIKDGMNVNLGIGMPTLVANEIPDGVHVMLQSENGLLGIGPYPLEGTEDADLINAGKETITEVTGASYFDSAESFAMIRGGHIDLAILGGMEVSEQGDLANWMIPGKMVKGMGGAMDLVNGAKRIVVIMEHVNKHGESKVKKTCSLPLTGQKVVHRLITDLAVFDFVNGRMTLTELQDGVTIEEVYEKTEADFAVSQSVLNS”, the “soluble on expression in E. coli” value was “soluble”. As to “MKEIIARHKAGEHLGICSVCSAHPLVIESALLFDLNTDNKVLIEATSNQVNQFGGYTGMKPADFRDFVYGIAQEVGFPRERLILGGDHLGPNCWQNEPAAAAMEKSVELIKAYVAAGFSKIHLDASMSCADDPTPLDPMVVARRAAVLCKAAEGTANEEQKCHLTYVIGTEVPVPGGEASTIGSVHVTREVDAARTLETHQIAFRESGLEEALSRVIAIVVQPGVEFDHTQIIHYQPQAAQALSAWIKETPMVYEAHSTDYQTRQAYRALVRDHYAILKVGPALTFALREAIFALAQMENELISPEQRSRVLEVIDEVMLNEPGYWKKYYRPTWSQAMVDIHFSLSDRIRYYWPHPRIRQSVEKLIANLNNVTLPLGLISQFMPVQFERLSEGVLTPTPHNLIIDKIQDVLRAYRFGCTPDVA”, the “soluble on expression in E. coli” value is reported as “not soluble”. In the case of “MKELKQAEQIRTWVQSILTDESSGHDWHHVSRVADLAAYIGEKEKADLFIVETAALVHDLIDVKLPDTVRLSVSEVYDQLVFFGVGKENADRVIHIITRMSFRDRGKLAKEPLSIEGKAVQDADRLDAIGAVGIARAFMFAGAKGHGLYGDEQSAYAHFFHKLLRLKDMMNTDTARELAEERHNFMLQFVRQLEKDIPGIDAETSLEHHHHHH”, the “soluble on expression in E. coli” value is given as “soluble”. Consider “MKELLKELVEKNRKFTADGNVANYIPELDKADKNALGIYVTTLDGQEFFAGDYNTKFTIQSISKIISLMLAILDNGEEYVFSKVGMEPSGDPFNSIRKLETSSRKKPYNPMINAGAIAVASMIKGKDDREKFSRLLNFAKLITEDDSLDLNYKIYIGESDTGFRNYSMAYFLKGEGIIEGNVNEALTVYFKQCSIEGTAKTISTLGKFLANDGVLSNGERILTTRMAKIIKTLMVTCGMYDSSGEFAVRVGIPSKSGVGGGICSVVPGKMGIGVYGPSLDKKGNSLAGGHLLEDLSAELSLNIFLEHHHHHH”, for which the “soluble on expression in E. coli” value is reported as “not soluble”.

With “MKEMTVSEIREVQLEMLAYIDKVARDNKIEYSLGGGSLLGAMRHKGFIPWDDDIDLMLERSQYERLMKALADANNSDFKLLHHSVEKNLWPFAKLYHTKSMYLSKTDRIHPWTGIFIDIFPLDRLPESAEERQRFFKKVHSAAANLMCTTYPNFASGSRKLYANARLILGLPRFIAYHGQAKKRAEIVDQVMETYNNQEVPYMGYTDSRYRLKEYFPREIFSEYEDVMFENIKTRKIKNEHAYLNQLYGGSYMELPPESKRESHSYYTWYWKEGLEHHHHHH”, the “soluble on expression in E. coli” value is given as “soluble”. The entry for “MKENPSFLKEQIITYLGNKRALLSFLNNGFKVAKKELGKDKFSFCDIFSGSGVVSRFAKAHSNYILANDLEDYSKLINECYLANKDKDLLQNIKKYYKNLIQNLDFQKGFISELYAPKDDDDIKKNERVFYTFKNALYLDTIRQKIENEIPKELRHFFIAPLIYEASVHSNTSGVFKGFYKGKDGIGKFGGEGQNALKRIKGEIELKMPIFSNFSCEFEVMQKDANMLAKELDFFDVVYLDPPYNQHPYSSNYFMLNLIANYKKPEEISKISGIPKDWNRSTFNKSKFAQDALFELINDLKARVILLSYNCEGFVKKEIFLKRLSTLGKCRILEQKYNTFRASRNLKNRNIHLHEQLYILVKN” is “not soluble”; for “MKERFMSKFAIVFPGQGSQAVGMLADLAEQYAVVKQTFAEASEVLGYDLWALVQDGPVEDLNQTFRTQPALLAASVAIWRVWQQLGLEQPAVLAGHSLGEYSALVCAGVIDFKQAIKLVELRGQLMQQAVPAGTGAMYAIIGLEDEAIAKACADAAQGEVVSPVNFNSPGQVVIAGQKDAVERAGVLCKEAGAKRALPLPVSVPSHCALMKPAADELAKTLAELEFNAPQIPVINNVDVVAETDPVKIKDALIRQLYSPVRWTECVEQMSAQGVEKLIEMGPGKVLTGLTKRIVKTLEGVAVNDVASLDAVK” it is “soluble”. Take “MKERVIITGANGQLGKQLQEELNPEEYDIYPFDKKLLDITNISQVQQVVQEIRPHIIIHCAAYTKVDQAEKERDLAYVINAIGARNVAVASQLVGAKLVYISTDYVFQGDRPEGYDEFHNPAPINIYGASKYAGEQFVKELHNKYFIVRTSWLYGKYGNNFVKTMIRLGKEREEISVVADQIGSPTYVADLNVMINKLIHTSLYGTYHVSNTGSCSWFEFAKKIFSYANMKVNVLPVSTEEFGAAAARPKYSIFQHNMLRLNGFLQMPSWEEGLERFFIETKSH”: the “soluble on expression in E. coli” value is given as “not soluble”.

On to “MKEVEKNEIKRLSDRLDAIRHQQAGLSLVESADKYAELEKEKETLEAEIIRLREVHSQKLSKEAQKLMNLPFRRAITKKEQADMGKLKKSVRGLIVVHPMTALGREMGLKEMTGFAKSEF”, for which the “soluble on expression in E. coli” value is on record as “not soluble”.

For “MKEVKRPVVSVVVPVYNTEPFLAECLHSLEKQTLTDIEIILVNDGSTDNSGRLLREYAGKDARFVYVEQENQGLSAARNTGMEHASGHYLAFLDSDDWLAENALQVLCAIAAKTRTDIVSGNTLAVHADGQVQSWERRGRELFATGTVVSGSTYFSRVMDCRCYVPMVYNYLYRRDFIEQNGFRFEPGLVHEDELWTPQVLTTAQKITVADIDFYYYRQREGSIMTATAAGRRIASIQLIIEKLLEYSRKHLFEKKYREAKEALYVRLLQIYSTACTLHPDGTYTTLYDRAGEMLRVCEELRRQESLGRWYSEEILNRMKLYYDRLQTMEG”, the “soluble on expression in E. coli” value was “not soluble”. The entry for “MKEVLKLADEKFVMSFSGGKDSILALNRMLKKGYKPVALLTTISEEHGKSWTHNLEYNMLKQVSSNIGLPLLVAECGVEGYEESFERALIKAKNMGATICAYGDIDIESHRKWDTDRCEAVGMKVDLPLWQESREDLVYEFIDSGFCSVVTKVNLKHLGEEFLGKKLTRELVEKIKNAGADPCGEHGEYHTFVVDGPIFKKPVEYEVKGTLIKDGYGYLEIK” is “not soluble”. The entry for “MKFAVIVFPGSNCDVDMFHAIKDELGEEVDYVWHDTENLDEYDAILLPGGFSYGDYLRCGAISRFANAMKAVQKAAEQGKPILGVCNGFQILVESGLLPGALIRNENLKFMCRTVQLRVENNETMFTSQYEKDEIINIPIAHGEGNYYCDEATLKQLEENNQIAFRYVENPNGSVSDIAGIVNEKGNVLGMMPHPERAVDELLGGAEGLKVFQSILKQWRETYVVNA” is “not soluble”; for “MKFETLDFNDEKDIKNFKTDCGDLQDCFTALPCRPGSNNQLDKRLRSIEWVCKAIVFLTEDFSNCFDKLHEKNAECVQNWNPLPNEIYLEDDKMKVEKMKENACDTYFGKDDCVKKEIIERCGQEEWNTFRKVPN” it is “not soluble”. The entry for “MKFGLFFLNFMNSKRSSDQVIEEMLDTAHYVDQLKFDTLAVYENHFSNNGVVGAPLTVAGFLLGMTKNAKVASLNHVITTHHPVRVAEEACLLDQMSEGRFAFGFSDCEKSADMRFFNRPTDSQFQLFSECHKIINDAFTTGYCHPNNDFYSFPKISVNPHAFTEGGPAQFVNATSKEVVEWAAKLGLPLVFRWDDSNAQRKEYAGLYHEVAQAHGVDVSQVRHKLTLLVNQNVDGEAARAEARVYLEEFVRESYSNTDFEQKMGELLSENAIGTYEESTQAARVAIECCGAADLLMSFESMEDKAQQRAVIDVVNANIVKYHSLEHHHHHH” is “soluble”.
